This note sets out measurements from article doi:10.1101/557132.

Assay [1] concerns the target human SNAP_GLP1R on CHO-K1 cells (human) (UniProt P43220).
Assay [2] concerns the target SNAP_GLP1R on YFP-AD293 cells (human) (UniProt P43220). The experiment in a line: fluorescent ligand labelling of cells.
Assay [3] shares this target.

SNAP_GLP1R on YFP-AD293 cells (human), sequence (P43220 24-463): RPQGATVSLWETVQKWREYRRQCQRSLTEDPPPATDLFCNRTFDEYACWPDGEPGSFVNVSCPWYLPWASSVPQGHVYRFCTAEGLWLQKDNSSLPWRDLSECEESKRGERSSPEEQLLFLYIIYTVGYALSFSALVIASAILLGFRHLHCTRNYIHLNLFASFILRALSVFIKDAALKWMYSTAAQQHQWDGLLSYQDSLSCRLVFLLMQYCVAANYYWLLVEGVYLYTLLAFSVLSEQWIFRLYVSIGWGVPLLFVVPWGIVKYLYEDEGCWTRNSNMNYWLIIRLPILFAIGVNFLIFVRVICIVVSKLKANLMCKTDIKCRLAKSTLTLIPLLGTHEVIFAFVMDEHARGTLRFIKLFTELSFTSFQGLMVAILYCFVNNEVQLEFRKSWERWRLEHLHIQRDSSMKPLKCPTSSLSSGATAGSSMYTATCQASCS
human SNAP_GLP1R on CHO-K1 cells (human), sequence (P43220 24-463): as above

S39C-Exendin4(9-39) (peptide): in assay [1], the block of GLP-1-induced cAMP production through GLP1R (cAMP-Glo) was 34.8 nM.
As to LUXendin645 (peptide), in assay [2], the concentration at maximum labeling stood at 100 nM. Also, in assay [1], the block of GLP-1-induced cAMP production through GLP1R (cAMP-Glo) amounted to 73.1 nM and the cAMP production (cAMP-Glo) with the positive allosteric modulator BETP stood at 9.3 nM.
Exendin4(9-39) (peptide) displayed a block of GLP-1-induced cAMP production through GLP1R (cAMP-Glo) in assay [1] of 38.4 nM.
As to LUXendin555 (peptide), in assay [3], the cAMP production (cAMP-Glo) is 130 nM and the cAMP production (cAMP-Glo) with the positive allosteric modulator BETP was 28.4 nM.
